# Laboratory results as given in publication doi:10.1101/2020.02.20.958934 (bioRxiv, 2020).
# T1: PEBP1 (UniProt P70296 1-187)
# T1 sequence (looked up): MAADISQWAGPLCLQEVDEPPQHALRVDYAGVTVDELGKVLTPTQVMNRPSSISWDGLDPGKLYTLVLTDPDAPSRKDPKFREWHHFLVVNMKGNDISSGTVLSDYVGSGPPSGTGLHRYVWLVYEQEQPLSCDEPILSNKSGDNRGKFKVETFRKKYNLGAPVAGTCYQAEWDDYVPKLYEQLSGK
# B1: dendritic cell factor 1 (DCF1) (natural protein)
# chain: EAFDSVLGDTASCHRACQLTYPLHTYPKEEELYACQRGCRLFSICQFVDDGLDLNRTKLECESACTEAYSQPDEQYACHLGCQDQLPFAELRQEQLMSLMPRMHLLFPLTLVRSFWSDMMDSAQSFITSSWTFYLQADDGKIVIFQSKPEIQYAPQLEQEPTNLRESSLSKMSYLQMRNSQAHRNYLEEEESDGFLRCLSLNSGWILTTTLVLSVMVLLWICCAAVATAVEQYVPPEKLSIYGDLEFMNEQKLSRYPAPSLVIVRSQTEEHEEAGPLPTKVNLAHSEI
# Target: T1, PEBP1
# Experiment: ITC
binder,measurement,value
B1,dH,-329 kcal/mol
same,stoichiometry N,0.753 ± 0.0359
